In article PMC5772683:

Target: microtubules (MTs) assembled from bovine brain tubulin (bovine) (UniProt Q6B856)
Experiment: co-sedimentation

Kd: 10.7 µM
Substance: human Profilin-1 (PFN1), wildtype (from UniProt P07737 1-140) (natural protein)
